Reference: article PMC2972665 (Biochemistry, 2010)

Molecular target: the molecule itself
Assay: AUC

B1: Wild type SgrAI (enzyme, Streptomyces griseus, UniProt Q9F6L0 1-339, looked up)
chain: MPFTYSIEATRNLATTERCIQDIRNAPVRNRSTQFQLAQQNMLAYTFGEVIPGFASAGINGMNYRDVIGRPVENAVTEGTHFFRDDFRVDSNAKAKVAGDIFEIVSSAVMWNCAARWNSLMVGEGWRSQPRYSRPTLSPSPRRQVAVLNLPRSFDWVSLLVPESQEVIEEFRAGLRKDGLGLPTSTPDLAVVVLPEEFQNDEMWREEIAGLTRPNQILLSGAYQRLQGRVQPGEISLAVAFKRSLRSDRLYQPLYEANVMQLLLEGKLGAPKVEFEVHTLAPEGTNAFVTYEAASLYGLAEGRSAVHRAIRELYVPPTAADLARRFFAFLNERMELVNG
For B1, the “stoichiometry N” value was 2 SgrAI chains in the DNA bound dimer.
